Results: patent US20190142971A1, “FORMULATION AND DELIVERY OF MODIFIED NUCLEOSIDE, NUCLEOTIDE, AND NUCLEIC ACID COMPOSITIONS” (ModernaTX, Inc., priority 2013, published 2019)

B1: EPO: modified mRNA encoding human erythropoietin, SEQ ID NO: 7, Cap1, fully modified with 5-methylcytosine and pseudouridine; LNP NPA-060-1 in Examples 17-22 (nucleic acid)
chain: GGGAAAUAAGAGAGAAAAGAAGAGUAAGAAGAAAUAUAAGAGCCACCAUGGGAGUGCACGAGUGUCCCGCGUGGUUGUGGUUGCUGCUGUCGCUCUUGAGCCUCCCACUGGGACUGCCUGUGCUGGGGGCACCACCCAGAUUGAUCUGCGACUCACGGGUACUUGAGAGGUACCUUCUUGAAGCCAAAGAAGCCGAAAACAUCACAACCGGAUGCGCCGAGCACUGCUCCCUCAAUGAGAACAUUACUGUACCGGAUACAAAGGUCAAUUUCUAUGCAUGGAAGAGAAUGGAAGUAGGACAGCAGGCCGUCGAAGUGUGGCAGGGGCUCGCGCUUUUGUCGGAGGCGGUGUUGCGGGGUCAGGCCCUCCUCGUCAACUCAUCACAGCCGUGGGAGCCCCUCCAACUUCAUGUCGAUAAAGCGGUGUCGGGGCUCCGCAGCUUGACGACGUUGCUUCGGGCUCUGGGCGCACAAAAGGAGGCUAUUUCGCCGCCUGACGCGGCCUCCGCGGCACCCCUCCGAACGAUCACCGCGGACACGUUUAGGAAGCUUUUUAGAGUGUACAGCAAUUUCCUCCGCGGAAAGCUGAAAUUGUAUACUGGUGAAGCGUGUAGGACAGGGGAUCGCUGAUAAGCUGCCUUCUGCGGGGCUUGCCUUCUGGCCAUGCCCUUCUUCUCUCCCUUGCACCUGUACCUCUUGGUCUUUGAAUAAAGCCUGAGUAGGAAG
modifications: Cap1, 5-methylcytosine, pseudouridine
B2: G-CSF: modified mRNA encoding human G-CSF, SEQ ID NO: 4, Cap1, fully modified with 5-methylcytosine and pseudouridine; LNP-formulated in Examples 16-22 (nucleic acid)
chain: GGGAAAUAAGAGAGAAAAGAAGAGUAAGAAGAAAUAUAAGAGCCACCAUGGCCGGUCCCGCGACCCAAAGCCCCAUGAAACUUAUGGCCCUGCAGUUGCUGCUUUGGCACUCGGCCCUCUGGACAGUCCAAGAAGCGACUCCUCUCGGACCUGCCUCAUCGUUGCCGCAGUCAUUCCUUUUGAAGUGUCUGGAGCAGGUGCGAAAGAUUCAGGGCGAUGGAGCCGCACUCCAAGAGAAGCUCUGCGCGACAUACAAACUUUGCCAUCCCGAGGAGCUCGUACUGCUCGGGCACAGCUUGGGGAUUCCCUGGGCUCCUCUCUCGUCCUGUCCGUCGCAGGCUUUGCAGUUGGCAGGGUGCCUUUCCCAGCUCCACUCCGGUUUGUUCUUGUAUCAGGGACUGCUGCAAGCCCUUGAGGGAAUCUCGCCAGAAUUGGGCCCGACGCUGGACACGUUGCAGCUCGACGUGGCGGAUUUCGCAACAACCAUCUGGCAGCAGAUGGAGGAACUGGGGAUGGCACCCGCGCUGCAGCCCACGCAGGGGGCAAUGCCGGCCUUUGCGUCCGCGUUUCAGCGCAGGGCGGGUGGAGUCCUCGUAGCGAGCCACCUUCAAUCAUUUUUGGAAGUCUCGUACCGGGUGCUGAGACAUCUUGCGCAGCCGUGAAGCGCUGCCUUCUGCGGGGCUUGCCUUCUGGCCAUGCCCUUCUUCUCUCCCUUGCACCUGUACCUCUUGGUCUUUGAAUAAAGCCUGAGUAGGAAG
modifications: Cap1, 5-methylcytosine, pseudouridine

Key:
[1] = tested on: C57BL/6; test: Example 115 (second): human EPO mRNA in mannitol multi-dose, serum EPO (Table 187); format: in vivo, mice; details: IM 2.5 mg/kg per dose
Protocol: Serum was collected from the mice 24 hours post the second, fourth, sixth and eighth doses.

[2] = tested on: peripheral blood mononuclear cells (PBMC); format: cell-based, human; details: three human PBMC donors
Protocol: 500 ng of G-CSF mRNA modified with 5-methylcytosine (5mC) and pseudouridine (pseudoU) or unmodified G-CSF mRNA was transfected with 0.4 uL of Lipofectamine 2000 into peripheral blood mononuclear cells (PBMC) from three normal blood donors (D1, D2, and D3). […] The supernatant was harvested 6 hours and 18 hours after transfection and run by ELISA to determine the protein expression. The expression of G-CSF, IFN-alpha, and TNF-alpha for Donor 1 is shown in Table 88, Donor 2 is shown in Table 89 and Donor 3 is shown in Table 90.

Molecule | Eighth Dose EPO ([1]; serum 24 hours post eighth dose) [pg/mL] | Fourth Dose EPO ([1]; serum 24 hours post fourth dose) [pg/mL] | Second Dose EPO ([1]; serum 24 hours post second dose) [pg/mL] | Sixth Dose EPO ([1]; serum 24 hours post sixth dose) [pg/mL] | protein translation and cytokine production [2]
B1 | 7.9 | 44.3 | 43.5 | 46.3 | –
B2 | – | – | – | – | most protein translation (G-CSF) and the least amount of cytokine
